According to patent US20100190699A1 (INDIANA UNIVERSITY RESEARCH AND TECHNOLOGY, published 2010):

Legend:
Test in all cases: cell-based or functional assay
glucagon receptor [1] = target: T1, glucagon receptor (UniProt P47871 26-477, limits assumed)
GLP-1 receptor = GLP-1 receptor (UniProt P43220 24-463, limits assumed)
glucagon receptor [2] = target: T1, glucagon receptor; remark: listed apart in the source

T1 sequence (P47871 26-477 limits assumed): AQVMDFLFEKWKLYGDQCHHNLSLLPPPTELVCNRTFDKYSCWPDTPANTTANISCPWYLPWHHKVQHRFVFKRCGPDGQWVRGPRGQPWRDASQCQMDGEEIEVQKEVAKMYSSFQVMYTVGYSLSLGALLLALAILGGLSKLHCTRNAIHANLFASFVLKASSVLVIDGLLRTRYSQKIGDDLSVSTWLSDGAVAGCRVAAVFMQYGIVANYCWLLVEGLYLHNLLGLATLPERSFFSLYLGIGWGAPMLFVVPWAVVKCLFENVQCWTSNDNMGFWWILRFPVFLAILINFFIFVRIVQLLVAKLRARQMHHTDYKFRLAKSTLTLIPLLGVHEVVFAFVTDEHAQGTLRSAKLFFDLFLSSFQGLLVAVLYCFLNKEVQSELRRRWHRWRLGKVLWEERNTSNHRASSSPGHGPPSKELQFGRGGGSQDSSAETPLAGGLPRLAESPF

B1: glucagon analog D28, E15 (peptide)
peptide: HSQGTFTSDYSKYLESRRAQDFVQWLMDT
- Observed EC50 (cAMP induction), Test 3 (glucagon receptor [1]): 0.15 nM

B2: glucagon analog K30, K31 (peptide)
peptide: HSQGTFTSDYSKYLDSRRAQDFVQWLMNTKK
- Observed EC50 (cAMP induction), Test 2 (glucagon receptor [1]): 0.12 nM

B3: glucagon analog D28, E29 (peptide)
peptide: HSQGTFTSDYSKYLDSRRAQDFVQWLMDE
- Observed EC50 (cAMP induction), Test 3 (glucagon receptor [1]): 0.03 nM

B4: glucagon analog D28, E30 (peptide)
peptide: HSQGTFTSDYSKYLDSRRAQDFVQWLMDTE
- Observed EC50 (cAMP induction), Test 3 (glucagon receptor [1]): 0.05 nM

B5: Glucagon R12 K29 (peptide)
peptide: HSQGTFTSDYSRYLDSRRAQDFVQWLMNK
- cAMP Induction, EC50 (luciferase reporter) (GLP-1 receptor): 0.41 nM
- cAMP Induction, EC50 (luciferase reporter) (glucagon receptor [2]): 0.81 nM

B6: glucagon analog K29, K30 (peptide)
peptide: HSQGTFTSDYSKYLDSRRAQDFVQWLMNKK
- Observed EC50 (cAMP induction), Test 1 (glucagon receptor [1]): 0.89 nM

B7: glucagon analog E30 (peptide)
peptide: HSQGTFTSDYSKYLDSRRAQDFVQWLMNTE
- Observed EC50 (cAMP induction), Test 2 (glucagon receptor [1]): 0.04 nM
